# Experimental data taken from patent publication US20050069911A1.
# Where no end group is shown, it is not given here.
# Assays:
# antibody C1 [1] = test: peptide competition ELISA (Example 5): the free peptide, in rising concentration, competes with the plate-bound target peptide for antibody C1; HRP-labelled secondary antibody, absorbance at 450
# antibody C1 [2] = test: peptide competition ELISA; free peptide competes with immobilized target peptide for C1
# antibody P1 [3] = test: peptide competition ELISA; free peptide competes with immobilized target peptide for P1
# antibody P1 [4] = test: peptide competition ELISA (Example 5): the free peptide, in rising concentration, competes with the plate-bound target peptide for antibody P1; HRP-labelled secondary antibody, absorbance at 450
# antibody P1 [5] = test: peptide competition ELISA; free peptide against immobilized target peptide for P1
# antibody P1 [6] = test: peptide competition ELISA
# antibody C1 [7] = test: peptide competition ELISA; free peptide against immobilized target peptide for C1
# antibody C1 [8] = test: peptide competition ELISA
Binder,IC50 (antibody P1 [5]),"fold higher concentration without competition, against the antigen PET EPAELTDA (antibody P1 [6])",IC50 (antibody C1 [7]),"fold higher concentration without competition, against the antigen PET YEVQGEVF (antibody C1 [8])",also measured
YEVQGEVF [CRP-derived 8-mer PET peptide YEVQGEVF],,,,,IC50 (read off the curve) (antibody C1 [1]): 0.9 µM; IC50 (antibody C1 [2]): 1 µM
EPAELTDA (not fully specified) [PSA-derived 8-mer PET peptide EPAELTDA],,,,,IC50 (antibody P1 [3]): 0.04 µM; IC50 (read off the curve) (antibody P1 [4]): 0.09 µM
EPVELTSA [nearest-neighbor 8-mer peptide EPVELTSA],> 1000 µM,25000 fold,,,
DPTQLTDA [nearest-neighbor 8-mer peptide DPTQLTDA],> 1000 µM,25000 fold,,,
VEVNGEVF [nearest-neighbor 8-mer peptide VEVNGEVF],,,> 1000 µM,> 1000 fold,
YEVLGEEF [nearest-neighbor 8-mer peptide YEVLGEEF],,,> 1000 µM,> 1000 fold,
